± gives the uncertainty stated by the source.
Experiment: self-splicing fitness, log relative to wild type (ln ratio); higher = more splicing; Tetrahymena group I intron in knt gene, E. coli kanamycin selection, DiMSum; sequences stand for … in CUCUCU…GGAGGGAAAAGUUAUCAGGCAUGCACCUGGUAGCUAGUCUUUAAACCAAUAGAUUGCAUCGGUUUAAAAGGCAAGACCGUCAAAUUGCGGGAAAGGGGUCAACAGCCGUUCAGUACCAAGUCUCAGGGGAAACUUUGAGAUGGCCUUGCAAAGGGUAUGGUAAUAAGCUGACGGACAUGGUCCUAACCACGCAGCCAAGUCCUAAGUCAACAGAUCUUCUGUUGAUAUGGAUGCAGUUCACAGACUAAAUGUCGGUCGGGGAAGAUGUAUUCUUCUCAUAAGAUAUAGUCGGACCUCUCCUUAAUGGGAGCUAGCGGAUGAAGUGAUGCAACACUGGAGCCGCUGGGAACUAAUUUGUAUGCGAAAGUAUAUUGAUUAGUUUUGGAGUACUCGUGGUCG
How it was run: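 The eight P1ex-region nucleotides of an intron in the knt kanamycin-resistance gene on pET-22b(+) were all randomised and the library put into E. coli BL21(DE3). Six replicate transformations were grown overnight at 37°C or 30°C on LB agar with or without 25 μg/mL kanamycin, together with 100 μg/mL carbenicillin, 50 μM IPTG and 0.2% rhamnose. Colonies were pooled and amplicon-sequenced on an Illumina HiSeq 2500. Fitness from DiMSum is the error-weighted combination of wild-type-normalised replicate fold changes, kanamycin over none.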

| Sequence | self-splicing fitness (ln) (30 °C) | self-splicing fitness (ln) (37 °C) |
| --- | --- | --- |
| ACUCAGCAAUAUUACGUGCC | -0.982 ± 0.13 | -0.189 ± 0.12 |
| ACUCAGCAAUAUUACGUUGU | -3.45 ± 0.11 | -2.23 ± 0.13 |
| ACUGAGCAAUAUUACGAACG | -2.48 ± 0.17 | -1.77 ± 0.21 |
| ACUGAGCAAUAUUACGACAU | -2.109 ± 0.015 | -1.12 ± 0.034 |
| ACUGAGCAAUAUUACGACCU | -1.57 ± 0.11 | -0.583 ± 0.13 |
| ACUGAGCAAUAUUACGACGU | -1.53 ± 0.11 | -1.66 ± 0.15 |
| ACUGAGCAAUAUUACGAGAA | -2.33 ± 0.38 | -1.96 ± 0.32 |
| ACUGAGCAAUAUUACGAGGC | -3.07 ± 0.23 | -2.59 ± 0.36 |
| ACUGAGCAAUAUUACGAGUG | -3.1 ± 0.12 | -2.76 ± 0.14 |
| ACUGAGCAAUAUUACGAUGA | -1.9 ± 0.091 | -1.59 ± 0.098 |
| ACUGAGCAAUAUUACGAUGU | -2.83 ± 0.14 | -2.67 ± 0.2 |
| ACUGAGCAAUAUUACGCAGC |  | -1.7 ± 0.42 |
| ACUGAGCAAUAUUACGCCGC | -3.95 ± 0.34 | -1.23 ± 0.49 |
| ACUGAGCAAUAUUACGCCGU |  | -2.31 ± 0.4 |
| ACUGAGCAAUAUUACGCGCU | -3.03 ± 0.23 | -2.1 ± 0.26 |
| ACUGAGCAAUAUUACGCGUA | -1.8 ± 0.15 | -3.16 ± 0.28 |
| ACUGAGCAAUAUUACGCUAG | -1.72 ± 0.2 | -3.23 ± 0.34 |
| ACUGAGCAAUAUUACGGAAC |  | -1.92 ± 0.29 |
| ACUGAGCAAUAUUACGGAAG | -2.52 ± 0.13 | -1.21 ± 0.2 |
| ACUGAGCAAUAUUACGGGCU | -3.34 ± 0.17 | -2.92 ± 0.25 |
| ACUGAGCAAUAUUACGUAGA | -3.68 ± 0.17 | -2.51 ± 0.23 |
| ACUGAGCAAUAUUACGUAUC |  | -2.99 ± 0.44 |
| ACUGAGCAAUAUUACGUCUA |  | -2.44 ± 0.25 |
| ACUGAGCAAUAUUACGUCUC | -3.61 ± 0.2 | -3.51 ± 0.33 |
| ACUGAGCAAUAUUACGUCUU | -2.57 ± 0.13 | -1.11 ± 0.12 |

| Sequence | self-splicing fitness (ln) (30 °C) | self-splicing fitness (ln) (37 °C) |
| --- | --- | --- |
| ACUGAGCAAUAUUACGUGAA | -2.94 ± 0.17 | -2.09 ± 0.17 |
| ACUGAGCAAUAUUACGUGGC | -3.3 ± 0.22 | -1.79 ± 0.25 |
| ACUGAGCAAUAUUACGUGGG | -3.55 ± 0.21 | -2.28 ± 0.16 |
| ACUGAGCAAUAUUACGUGGU | -4.07 ± 0.14 | -2.56 ± 0.13 |
| ACUUAGCAAUAUUACGAAUA |  | -1.76 ± 0.31 |
| ACUUAGCAAUAUUACGACCA | -0.584 ± 0.12 | -1.01 ± 0.12 |
| ACUUAGCAAUAUUACGAGCA | -1.2 ± 0.12 | -0.129 ± 0.13 |
| ACUUAGCAAUAUUACGAUGG | -2.19 ± 0.099 | -1.16 ± 0.12 |
| ACUUAGCAAUAUUACGAUUA | -1.05 ± 0.13 | -1.55 ± 0.13 |
| ACUUAGCAAUAUUACGCAGA | -2.32 ± 0.26 | -0.913 ± 0.15 |
| ACUUAGCAAUAUUACGCAUU | -1.27 ± 0.11 | -1.47 ± 0.17 |
| ACUUAGCAAUAUUACGCCAC | -3.2 ± 0.31 | -3.59 ± 0.31 |
| ACUUAGCAAUAUUACGCGCU | -0.535 ± 0.094 | -0.305 ± 0.097 |
| ACUUAGCAAUAUUACGCGUC | -3.62 ± 0.25 | -1.83 ± 0.26 |
| ACUUAGCAAUAUUACGCUCU | -0.715 ± 0.13 | -0.397 ± 0.14 |
| ACUUAGCAAUAUUACGGCAU | -1.01 ± 0.071 | -0.0593 ± 0.088 |
| ACUUAGCAAUAUUACGGGGU | -2.71 ± 0.16 | -2.73 ± 0.27 |
| ACUUAGCAAUAUUACGGUCA | -1.88 ± 0.15 | -0.773 ± 0.15 |
| ACUUAGCAAUAUUACGGUUU | -1.23 ± 0.11 | -0.718 ± 0.16 |
| ACUUAGCAAUAUUACGUGGA | -2.47 ± 0.13 | -2.7 ± 0.16 |
| AGAAAGCAAUAUUACGAAAA | -1.74 ± 0.13 | -0.577 ± 0.15 |
| AGAAAGCAAUAUUACGAACG | -0.489 ± 0.084 | -0.004 ± 0.12 |
| AGAAAGCAAUAUUACGAAUU | -0.791 ± 0.089 | -1.32 ± 0.11 |
| AGAAAGCAAUAUUACGACAA | -0.576 ± 0.087 | 0.0351 ± 0.089 |
| AGAAAGCAAUAUUACGACAG | -2.36 ± 0.11 | -0.954 ± 0.11 |

| Sequence | self-splicing fitness (ln) (30 °C) | self-splicing fitness (ln) (37 °C) |
| --- | --- | --- |
| AGAAAGCAAUAUUACGACUC | -1.53 ± 0.21 | -0.214 ± 0.2 |
| AGAAAGCAAUAUUACGAUUG | -3.82 ± 0.27 | -1.93 ± 0.21 |
| AGAAAGCAAUAUUACGCAUG | -1.66 ± 0.1 | -0.374 ± 0.1 |
| AGAAAGCAAUAUUACGCCCA | 0.247 ± 0.12 | 0.167 ± 0.2 |
| AGAAAGCAAUAUUACGCCCG | -0.679 ± 0.19 | -0.0334 ± 0.19 |
| AGAAAGCAAUAUUACGCCGA | -1.29 ± 0.15 | -0.795 ± 0.15 |
| AGAAAGCAAUAUUACGCUAC | -3.25 ± 0.39 |  |
| AGAAAGCAAUAUUACGGAGA | -3 ± 0.22 | -2.79 ± 0.23 |
| AGAAAGCAAUAUUACGGCAA | 0.0585 ± 0.1 | -0.187 ± 0.12 |
| AGAAAGCAAUAUUACGGCCU | 0.484 ± 0.11 | 0.212 ± 0.12 |
| AGAAAGCAAUAUUACGGCUG | -0.141 ± 0.11 | -0.414 ± 0.16 |
| AGAAAGCAAUAUUACGGGAG | -2.56 ± 0.097 | -1.97 ± 0.12 |
| AGAAAGCAAUAUUACGGGCA | -0.6 ± 0.14 | -0.0746 ± 0.12 |
| AGAAAGCAAUAUUACGGGUA | -1.32 ± 0.092 | -1.01 ± 0.095 |
| AGAAAGCAAUAUUACGGUGA | -0.65 ± 0.12 | -0.655 ± 0.14 |
| AGAAAGCAAUAUUACGGUGC | -2.39 ± 0.15 | -2.6 ± 0.31 |
| AGAAAGCAAUAUUACGUAGG | -2.89 ± 0.14 | -2.16 ± 0.15 |
| AGAAAGCAAUAUUACGUAUA | -2.13 ± 0.12 | -1.66 ± 0.13 |
| AGAAAGCAAUAUUACGUCCU | -0.0571 ± 0.065 | 0.432 ± 0.089 |
| AGAAAGCAAUAUUACGUCGG | -1.37 ± 0.088 | -1.04 ± 0.11 |
| AGAAAGCAAUAUUACGUGAG | -1.39 ± 0.065 | -0.952 ± 0.099 |
| AGAAAGCAAUAUUACGUGCU | -0.713 ± 0.063 | -1.28 ± 0.092 |
| AGAAAGCAAUAUUACGUGUC | -4.33 ± 0.31 | -1.67 ± 0.18 |
| AGAAAGCAAUAUUACGUUAA | -2.23 ± 0.14 | -1.44 ± 0.17 |
| AGAAAGCAAUAUUACGUUAU | -2.29 ± 0.099 | -1.58 ± 0.13 |

| Sequence | self-splicing fitness (ln) (30 °C) | self-splicing fitness (ln) (37 °C) |
| --- | --- | --- |
| AGACAGCAAUAUUACGAACU | -0.675 ± 0.076 | 0.326 ± 0.096 |
| AGACAGCAAUAUUACGACAG | -3.42 ± 0.14 | -0.41 ± 0.12 |
| AGACAGCAAUAUUACGACCC | -0.868 ± 0.29 | -0.564 ± 0.3 |
| AGACAGCAAUAUUACGACUU | -0.384 ± 0.074 | 0.347 ± 0.099 |
| AGACAGCAAUAUUACGAGCU | -1.22 ± 0.085 | -1.15 ± 0.11 |
| AGACAGCAAUAUUACGAGUG | -4.11 ± 0.16 | -1.9 ± 0.092 |
| AGACAGCAAUAUUACGAUAC | -2.64 ± 0.27 | -1.79 ± 0.25 |
| AGACAGCAAUAUUACGCCGC |  | -1.62 ± 0.38 |
| AGACAGCAAUAUUACGCCUC | -4.48 ± 0.36 | -2.08 ± 0.21 |
| AGACAGCAAUAUUACGCUCG | -0.153 ± 0.076 | 0.136 ± 0.089 |
| AGACAGCAAUAUUACGGAGA | -3.65 ± 0.18 | -2.55 ± 0.29 |
| AGACAGCAAUAUUACGGAUC | -3.16 ± 0.2 | -0.56 ± 0.17 |
| AGACAGCAAUAUUACGGCCU | -1.2 ± 0.085 | -0.234 ± 0.09 |
| AGACAGCAAUAUUACGGGCC | -1.45 ± 0.1 | -1.21 ± 0.11 |
| AGACAGCAAUAUUACGGUAG | -3.97 ± 0.22 | -0.604 ± 0.092 |
| AGACAGCAAUAUUACGGUGC | -2.82 ± 0.18 | -1.89 ± 0.18 |
| AGACAGCAAUAUUACGUACU | -0.834 ± 0.062 | -0.36 ± 0.086 |
| AGACAGCAAUAUUACGUAGC | -2.07 ± 0.19 | -2.14 ± 0.23 |
| AGACAGCAAUAUUACGUAUC | -3.63 ± 0.16 | -1.52 ± 0.15 |
| AGACAGCAAUAUUACGUCAC | -3 ± 0.23 | -3.41 ± 0.19 |
| AGACAGCAAUAUUACGUGAA | -2.03 ± 0.14 | -0.982 ± 0.15 |
| AGACAGCAAUAUUACGUGGA | -3.96 ± 0.24 | -2.37 ± 0.2 |
